The text below walks through data of patent EP4803151A2 (Lepu Biopharma Co., Ltd., dated 2026).

Changes are numbered by the printed parent chain.

Sequences and labels used below:
T1: ECD of human DLL3 protein fused with his tag (Acro Bio, Cat. No. DL3-H52H4) (human, UniProt Q9NYJ7 27-492)
T1 construct: range 27-492; Bought protein; also called hDLL3-his; human DLL3-his protein; not shown: his tag
T1 sequence (looked up): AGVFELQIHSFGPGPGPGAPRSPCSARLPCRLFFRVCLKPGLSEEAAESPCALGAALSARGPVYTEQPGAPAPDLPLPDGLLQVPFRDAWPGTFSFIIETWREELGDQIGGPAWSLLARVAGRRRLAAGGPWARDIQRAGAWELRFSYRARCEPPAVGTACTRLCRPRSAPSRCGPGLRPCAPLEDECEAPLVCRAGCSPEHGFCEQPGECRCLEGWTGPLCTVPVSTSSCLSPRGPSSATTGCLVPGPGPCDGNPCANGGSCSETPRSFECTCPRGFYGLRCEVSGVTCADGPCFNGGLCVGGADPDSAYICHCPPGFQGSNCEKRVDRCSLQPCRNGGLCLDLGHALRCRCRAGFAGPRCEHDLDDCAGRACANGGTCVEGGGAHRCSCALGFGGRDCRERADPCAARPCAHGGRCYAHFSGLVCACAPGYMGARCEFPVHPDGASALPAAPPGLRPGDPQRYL

T2: ECD of human DLL3 over-expressed on HEK293 cells (human, UniProt Q9NYJ7 27-492)
T2 construct: extracellular domain; also called HEK293-hDLL3; human DLL3 expressed on HEK293 cells
T2 sequence (looked up): T1 sequence (looked up)

T3: human full length DLL1 expressed on CHO-K1 cells (human, UniProt O00548 18-723)
T3 construct: whole, on cells; also called CHO-K1-hDLL1
T3 sequence (looked up): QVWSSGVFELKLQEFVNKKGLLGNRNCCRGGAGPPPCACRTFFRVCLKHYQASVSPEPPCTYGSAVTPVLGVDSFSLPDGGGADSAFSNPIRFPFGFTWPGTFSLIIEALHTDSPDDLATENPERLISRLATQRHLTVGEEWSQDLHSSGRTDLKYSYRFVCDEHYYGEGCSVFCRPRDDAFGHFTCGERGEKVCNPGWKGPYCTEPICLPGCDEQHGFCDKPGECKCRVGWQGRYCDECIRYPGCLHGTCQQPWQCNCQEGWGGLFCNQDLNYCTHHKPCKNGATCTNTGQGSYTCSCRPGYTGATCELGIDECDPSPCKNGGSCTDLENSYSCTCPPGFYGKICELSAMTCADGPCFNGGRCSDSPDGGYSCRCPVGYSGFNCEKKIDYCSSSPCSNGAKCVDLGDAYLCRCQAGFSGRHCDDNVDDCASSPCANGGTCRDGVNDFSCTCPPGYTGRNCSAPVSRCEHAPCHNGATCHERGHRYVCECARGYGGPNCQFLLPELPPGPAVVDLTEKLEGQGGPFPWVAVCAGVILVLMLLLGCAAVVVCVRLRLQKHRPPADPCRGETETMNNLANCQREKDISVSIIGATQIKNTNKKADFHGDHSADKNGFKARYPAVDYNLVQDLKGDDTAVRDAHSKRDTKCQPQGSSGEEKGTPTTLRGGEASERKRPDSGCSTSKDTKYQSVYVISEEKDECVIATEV

T4: human DLL3 endogenously expressed on SCLC tumor cell lines SHP77 and NCI-H82 (human, UniProt Q9NYJ7 27-618)
T4 construct: whole, on cells; also called human DLL3 expressed on tumor cells
T4 sequence (looked up): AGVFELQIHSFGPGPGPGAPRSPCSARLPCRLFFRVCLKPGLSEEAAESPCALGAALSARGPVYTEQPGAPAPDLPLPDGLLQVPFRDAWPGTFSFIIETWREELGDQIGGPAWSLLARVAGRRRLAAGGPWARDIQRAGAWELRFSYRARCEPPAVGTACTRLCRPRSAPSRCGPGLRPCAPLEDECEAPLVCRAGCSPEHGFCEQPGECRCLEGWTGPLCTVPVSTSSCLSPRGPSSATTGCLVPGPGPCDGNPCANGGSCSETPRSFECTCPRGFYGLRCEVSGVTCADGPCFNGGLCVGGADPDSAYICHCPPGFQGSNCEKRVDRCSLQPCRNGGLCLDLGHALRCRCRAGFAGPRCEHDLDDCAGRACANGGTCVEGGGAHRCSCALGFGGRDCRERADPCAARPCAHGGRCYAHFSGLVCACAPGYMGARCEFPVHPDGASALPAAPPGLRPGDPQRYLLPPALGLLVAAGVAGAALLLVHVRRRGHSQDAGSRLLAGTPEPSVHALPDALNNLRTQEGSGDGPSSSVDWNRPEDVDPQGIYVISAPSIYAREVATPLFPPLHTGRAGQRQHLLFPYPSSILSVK

B1: 310P3C5-z7 humanized antibody (antibody, human IgG1, kappa, V domains shown)
VH: QVQLVQSGAEVKKPGASVKVSCKASGYTFTDFYMNWVRQAPGQGLEWIGDANPNNGGTTHNPRFKGRATLTVDTSTSTAYMELRSLRSDDTAVYYCARGGLPGDFDYWGQGTTVTVSS
VL: DIQMTQSPSSVSASVGDRVTITCKASEDIYNRLAWYQQKPGKAPKLLISGVTSLETGVPSRFSGSGSGTDFTLTISSLQPEDFATYYCQQYWSFPWTFGGGTKVEIKR
notes: HU-VH1-3 with HU-VL1-2; human IgG1
B2: 310P3C5-z8 humanized antibody (antibody, human IgG1, kappa, V domains shown)
VH: B1 VH with R67Q, T74K
VL: B1 VL
notes: HU-VH1-4 with HU-VL1-2; human IgG1
B3: 310P3C5-z2 humanized antibody (antibody, human IgG1, kappa, V domains shown)
VH: B1 VH with L70M, V72T
VL: B1 VL with S49Y
notes: HU-VH1-2 with HU-VL1-1; human IgG1
B4: 310P3C5-z3 humanized antibody (antibody, human IgG1, kappa, V domains shown)
VH: B1 VH
VL: B1 VL with S49Y
notes: HU-VH1-3 with HU-VL1-1; human IgG1
B5: 310P3C5-z13 humanized antibody (antibody, human IgG1, kappa, V domains shown)
VH: B1 VH with I48M, A68V, L70M, V72T
VL: B1 VL with V11L, L73F, F83I
notes: HU-VH1-1 with HU-VL2; human IgG1
B6: 310P3C5-z5 humanized antibody (antibody, human IgG1, kappa, V domains shown)
VH: B1 VH with I48M, A68V, L70M, V72T
VL: B1 VL
notes: HU-VH1-1 with HU-VL1-2; human IgG1
B7: 310P3C5-z11 humanized antibody (antibody, human IgG1, kappa, V domains shown)
VH: B1 VH
VL: B1 VL with T69K
notes: HU-VH1-3 with HU-VL1-3; human IgG1
B8: 310P3C5-z14 humanized antibody (antibody, human IgG1, kappa, V domains shown)
VH: B1 VH with R38K, T74K, T76A, D89E
VL: B1 VL with S49Y
notes: HU-VH2 with HU-VL1-1; human IgG1
B9: 310P3C5-z6 humanized antibody (antibody, human IgG1, kappa, V domains shown)
VH: B1 VH with L70M, V72T
VL: B1 VL
notes: HU-VH1-2 with HU-VL1-2; human IgG1
B10: 310P3C5-z12 humanized antibody (antibody, human IgG1, kappa, V domains shown)
VH: B1 VH with R67Q, T74K
VL: B1 VL with T69K
notes: HU-VH1-4 with HU-VL1-3; human IgG1
B11: 310P3C5-z9 humanized antibody (antibody, human IgG1, kappa, V domains shown)
VH: B1 VH with I48M, A68V, L70M, V72T
VL: B1 VL with T69K
notes: HU-VH1-1 with HU-VL1-3; human IgG1
B12: 310P3C5-z4 humanized antibody (antibody, human IgG1, kappa, V domains shown)
VH: B1 VH with R67Q, T74K
VL: B1 VL with S49Y
notes: HU-VH1-4 with HU-VL1-1; human IgG1
B13: 310P3C5-z10 humanized antibody (antibody, human IgG1, kappa, V domains shown)
VH: B1 VH with L70M, V72T
VL: B1 VL with T69K
notes: HU-VH1-2 with HU-VL1-3; human IgG1
B14: 310P3C5-z1 humanized antibody (antibody, human IgG1, kappa, V domains shown)
VH: B1 VH with I48M, A68V, L70M, V72T
VL: B1 VL with S49Y
notes: HU-VH1-1 with HU-VL1-1; human IgG1
B15: 310P3C5-z15p10 PTM removed humanized antibody (antibody, V domains shown)
VH: B1 VH with R38K, N55A, T74K, T76A, D89E
VL: DIQMTQSPSSLSASVGDRVTITCKASEDIYNRLAWYQQKPGKAPKLLISGVTSLETGVPSRFSGSGSGTDFTFTISSLQPEDIATYYCQQYWSFPWTFGGGTKVEIK
notes: variable regions fused to the constant region of human IgG1
B16: 310P3C5-z15p13 PTM removed humanized antibody (antibody, V domains shown)
VH: B1 VH with R38K, N55H, T74K, T76A, D89E
VL: B15 VL
notes: as for B15
B17: 310P3C5-z15p12 PTM removed humanized antibody (antibody, V domains shown)
VH: B1 VH with R38K, N55F, T74K, T76A, D89E
VL: B15 VL
notes: as for B15
B18: 310P3C5-z15p19 PTM removed humanized antibody (antibody, V domains shown)
VH: B1 VH with R38K, N55V, T74K, T76A, D89E
VL: B15 VL
notes: as for B15
B19: 310P3C5-z15p21 PTM removed humanized antibody (antibody, V domains shown)
VH: B1 VH with R38K, N55Y, T74K, T76A, D89E
VL: B15 VL
notes: as for B15
B20: 310P3C5-z15p20 PTM removed humanized antibody (antibody, V domains shown)
VH: B1 VH with R38K, N55W, T74K, T76A, D89E
VL: B15 VL
notes: as for B15
B21: 310P3C5-z15p18 PTM removed humanized antibody (antibody, V domains shown)
VH: B1 VH with R38K, N55R, T74K, T76A, D89E
VL: B15 VL
notes: as for B15

One test concerns the target T1, ECD of human DLL3 protein fused with …. Kind of test: ELISA, hDLL3-his coated. Background: ELISA stands for enzyme-linked immunosorbent assay.
Consider B1, for which the binding result is listed as “binds”.
Still for that read-out and setting: the result for B2 reads “binds”.
On the same count and under the same terms, the value for B3 was “binds”.
Still for that read-out and setting: the value for B4 was “binds”; that for B5 was “binds”.
Regarding B6, the binding result is recorded as “binds”.
Consider B7, for which the binding result is “binds”.
As for B8, the binding result is recorded as “binds”.
B9: the binding result was “binds”.
For the molecule B10, the binding result is given as “binds”.
For B11, the binding result is “binds”.
Same read-out and setting: the value for B12 was “binds”; that for B13 was “binds”.
Same read-out and setting: the value for B14 was “binds”.

In a further test the target is T5, human full length DLL4 expressed on CHO-K1 cells (human, UniProt Q9NR61 27-685).
T5 construct: whole, on cells; also called CHO-K1-hDLL4
T5 sequence (Q9NR61 27-685): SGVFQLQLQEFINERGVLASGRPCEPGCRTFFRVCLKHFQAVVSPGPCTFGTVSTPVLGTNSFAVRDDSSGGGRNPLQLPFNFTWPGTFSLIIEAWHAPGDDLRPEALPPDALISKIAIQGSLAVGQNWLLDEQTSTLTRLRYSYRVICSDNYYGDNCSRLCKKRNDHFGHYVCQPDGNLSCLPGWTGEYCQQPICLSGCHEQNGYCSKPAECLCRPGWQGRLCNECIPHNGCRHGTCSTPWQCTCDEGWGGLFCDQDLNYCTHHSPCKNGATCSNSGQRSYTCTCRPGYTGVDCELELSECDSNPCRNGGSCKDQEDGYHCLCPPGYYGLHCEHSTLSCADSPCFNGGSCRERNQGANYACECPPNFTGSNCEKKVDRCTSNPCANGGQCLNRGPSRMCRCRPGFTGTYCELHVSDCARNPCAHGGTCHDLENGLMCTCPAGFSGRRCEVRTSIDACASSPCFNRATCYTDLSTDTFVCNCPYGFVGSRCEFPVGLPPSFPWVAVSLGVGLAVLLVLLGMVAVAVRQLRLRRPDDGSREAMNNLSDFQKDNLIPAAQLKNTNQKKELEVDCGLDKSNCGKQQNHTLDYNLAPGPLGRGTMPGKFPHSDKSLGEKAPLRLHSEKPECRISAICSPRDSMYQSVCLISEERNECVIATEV
The test is described as follows: flow cytometry on CHO-K1-hDLL4 cells.
With B2, the binding result was “no binding”.
The same measure, in the same setting: the value for B8 was “no binding”; that for B10 was “no binding”.
Regarding B12, the binding result was “no binding”.

For another test, the target named is T2, ECD of human DLL3 over-expressed on …. Kind of test: flow cytometry on HEK293-hDLL3 cells. A general note: In flow cytometry, cells or beads pass a laser one at a time.
Turning to B15, the binding result is “binds”.
As for B2, the binding result is listed as “binds”.
Regarding B16, the binding result is “binds”.
For the molecule B17, the binding result is “binds”.
As to B18, the binding result is reported as “binds”.
On the same count and under the same terms, the value for B8 was “binds”; that for B19 was “binds”; that for B20 was “binds”.
On the same count and under the same terms, the result for B10 reads “binds”; that for B21, “binds”; that for B12, “binds”.

The target of a further test is T3, human full length DLL1 expressed on …. Kind of test: flow cytometry on CHO-K1-hDLL1 cells.
Regarding B2, the binding result was “no binding”.
The same measure, in the same setting: the value for B8 was “no binding”; that for B10 was “no binding”.
The same measure, in the same setting: the value for B12 was “no binding”.

For a further test, the target named is T4, human DLL3 endogenously expressed on …. Kind of test: flow cytometry on SHP77 and NCI-H82 cells.
For the molecule B2, the binding result was “binds”.
The same measure, in the same setting: the value for B8 was “binds”; that for B10 was “binds”.
In the case of B12, the binding result was “binds”.

For another test the target is unchanged. Kind of test: flow cytometry on SHP77 cells.
In the case of B15, the binding result is “binds”.
Same read-out and setting: the value for B16 was “binds”.
Still for that read-out and setting: the result for B17 reads “binds”.
The same measure, in the same setting: the result for B18 reads “binds”.
Turning to B19, the binding result was “binds”.
For the molecule B20, the binding result is recorded as “binds”.
With B21, the binding result was “binds”.
